The source of these data is the RNAGym collection of RNA variant scans (doi:10.1073/pnas.2313332121).

The chains are these.
B1: TPR t1 (parent)
chain: GACCAAUCUGCCCUCAGAGCUCGAGAACAUCUUCGGAUGCAGAGGAGGCAGGCUUCGGUGGCGCGAUAGCGCCAACGUCCUCAACCUCCAAUGCAUCCCACCACAUGAUGAUGCCUGAAGAGCCUUGGUUUUUUG

In the series the parent is B1. Description: polymerase ribozyme fitness, log enrichment relative to wild type (log ratio); higher = more active; in vitro selection for triplet polymerase activity. In outline:
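Input and output libraries were sequenced on Illumina after a single in vitro selection round, run in triplicate on PCR-built, transcribed mutant libraries of each subunit of a heterodimeric triplet polymerase ribozyme. Selection annealed libraries to a biotinylated primer, the partner subunit and triplets, incubated them frozen at −7 °C, then gel-excised extended constructs for streptavidin-bead capture and RT-PCR. Genotypes with ≥10 input reads and ≥1 read per output were kept. Fitness is the logarithm, taken in base 2, of genotype enrichment divided by wild-type enrichment, using inverse-variance-weighted replicate averages.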
Consider GACCAAUCUGGCCUCAGAGCUCGAGAACAUCUUCGGAUGCAGAGGAGGCAGGCUUCGGUGGCGCGAUAGCGCCAACGUCCUCAACCUCCAAUGCAUCCCACCACAUGAUUAUGCCUGAAGAGCCAUGGUUUUUUG [C11G G110U U125A], for which the “polymerase ribozyme fitness (log ratio)” value was -0.479.
As for GACCAUUCUGCACUCAGAGCUCGAGAACAUCUUCGGAUGCAGAGGAGGCAGGCUUCGGUGACGCGAUAGCGCCAACGACUUCAACAUCCAAUGCAUCCCACCACAUGAUGAUGCCUGAAAAGCCUUGGUUUUUUG [A6U C12A G61A U78A C80U C86A G120A], the “polymerase ribozyme fitness (log ratio)” value was -2.58.
For the variant GACCAAUCUGCUCUGAGAGCUCGAGAACAUCUUCGGAUGCAGAGGAGGCAGGCUUCGGUGGCGCGAUAGCGCCAACGUACUCAAGCUCCAAUGCAUCCCACCACAUGAUGAUGCCUGAAAAGCCUUGGUUUUUUG [C12U C15G C79A C85G G120A], the “polymerase ribozyme fitness (log ratio)” value is -2.63.
With GACCAAUCUGCCCUCAGAGCUCGAGAAGAUCUUCGGAUGCAGAGGAGGCAGGCUUAGGUGGCGCGAUAGCGCGAACGUCCUCAACCUCCAAUGCAUCCCACCACACGAUGAUGCCUGAAGAGCCUUGGUUUUUUG [C28G C56A C73G U106C], the “polymerase ribozyme fitness (log ratio)” value is -4.85.
Consider GACCACUCGGCCCUCAGAGCUCGAGAACAUCUUCGGAUGCAGAGGAGGCAGGCUUCGGUGGCGCGAUAGCGCCAACGUCCUCAACCUCCAAUGCAUCCCACCACAUGAUGAUGCCUGAAGAGCCUUGGUUUUUUG [A6C U9G], for which the “polymerase ribozyme fitness (log ratio)” value is -0.665.
For GACCAAUCUGCCCUCAGAGCUCGAGAACAUCUUCGGAUGCAGAGGAGGCAGGCUUCGGUGGCGCGAUAGCGCCAACGUCCUCAACCUACAAUGCAUCCCACCACAUGAUGUUGCCUGAAGAGCCUUGGUUUUUUG [C88A A111U], the “polymerase ribozyme fitness (log ratio)” value was -4.33.
Regarding GACCAAUCUGGCCUCAGAGCUCGAGAACAUCUUCGGAUGCAGAGGAGGCAGGCUUCGGAGGCGCGAUUGCGCCAACGUCCUCAACCUCCAAUGCAUCCCACCACAUGAUGAUGCCUGAAGAGCCUUGGUUUUUUG [C11G U59A A68U], the “polymerase ribozyme fitness (log ratio)” value was -7.59.
As to GACCAAUCUGCCCUUAGAGCUCGAGAACAUCUUCGGAUGCAGAGGAGGCAGGCUUCGGUGGAGCGAUAGCGCCAACGUACUCAACCUCCAAUGCAUCCCACCACAUGAUGAUGCCUGAAGAGCCUUGGUUUUUUG [C15U C62A C79A], the “polymerase ribozyme fitness (log ratio)” value is -4.11.
As to GGCCAAUCUGCGCUCAAAGCUCGAGAACAUCUUCGGAUGCAGAGGAGGCAGGCCUCGGUGGCGCGAUAGCGCCAACGUCCUCAACCUUCAUUGCAUCCCAUCACUUGAUGAUGGCUGAAGAGCCUUGGUUUUUUG [A2G C12G G17A U54C C88U A91U C101U A105U C114G], the “polymerase ribozyme fitness (log ratio)” value was -5.19.
Turning to GACCAAUCUGCCCUCAGAGCUCGAGAACAUCUUCGGAUGCAGAGGAGGCAGGCUUCGGUGGCGCGAUAGCGCCAACGUCCUCAACCUCCAUUGCAUCCCACCACAUGAUGAUGCCUGAAGAGCCUUGGUUUCUUG [A91U U132C], the “polymerase ribozyme fitness (log ratio)” value is -1.79.
GACCAAUCUGCCCCCAGAGCUCGAGAACAUCUUCGGAUGCAGAGGAGGCAGGCUUCGGUGGCGCGAUAGCUCCAACGUCCUCAACCUCCAUUGCAUCCCACCACAUGAUGAUGACUGAAGUGCUUUGGUUUUUUG [U14C G71U A91U C114A A121U C124U]: the “polymerase ribozyme fitness (log ratio)” value is -4.54.
On to GACCAAUCUGCCCUCAGAGCUCGAGAACAUCUUCGGAUGCAGAGGAGGCAGGCUUAGGUGGCGCGAUAGCCCCAACGUCCUCAACCUCCAAUGCAUCCCACCACAUGAUGAUGCCUGAAGAGCCUUGGUUUUUUG [C56A G71C], for which the “polymerase ribozyme fitness (log ratio)” value is -4.4.
Take GACCAAUCUGCCCUCAGAGCUCGAGAACAUCUUCGGAUGCAGAGGAGGCAGGCUUCGGUGGCCCGAUAGCGCCAACGUCCUCAACCUCUAAUGCAUCCCACCACAUGAUGAUGCCUGAAGAGCCUUGGUUUUUUG [G63C C89U]: the “polymerase ribozyme fitness (log ratio)” value was -1.31.
Take GACCAAUCUGCCCUCAGAGAUCGAGAACAUCUUCGGAUGCAGAGGAGGCAGGCUUCGGUGGCGCGAUAGCGCCAACGUCCUCAUCCUCCGAUGCAUCGCACCACAUGAAGAUGCCUGAAGUGCCUUGGUUUUUUG [C20A A84U A90G C98G U109A A121U]: the “polymerase ribozyme fitness (log ratio)” value was -3.83.
The same measure for GACCAAUCGGCCGUCAGAGCUCGAGAACAUCUUCGGAUGCAGAGGAGGCAGGCUUCGGUGGCGCGAUAGCGCCAACGUCCUCAACCUCCAAUGCAUCCCACCACAUGAUGAUGCCUGAAGAGCCUUGGUUUUUUG [U9G C13G]: 0.0659; for GACCAAUCUGCCCUCAGAGCUCGAGAACAUCUUCGGAUGCAGAAGAGGCAGCCUUCGAUGGCGCGAUAGCGCCAACGUCCUCAACCUCCAAUGCAUCCCACCACAUGAUGAUGCCUGAAAAGCCUUGGUUUUUUG [G44A G52C G58A G120A]: -1.3; for GACCAAUCUGCCCUCAGAGCUCGAGAACAUCUUCGGAUGCAGAGGAGGCAGGCUUCGGUGGCGCGAUAACGCCAACGUCCUCAACGUCCAAUGCAUCCCACCACAUGAUGAUGCCUGAAGUGCCUUGGUUUUUUG [G69A C86G A121U]: -1.34.
With GACCAAUCUGCCCUCAGAGCUCGUGAACAUCUUCGGAUGCAGAGGAGGCAGGCUUCGGUGGCGCGAUAGCGCCAACGUCCUCAACCUCCAAUGCAUCCCACCACAUGAUGAUGCCUGAGGAGCCUUGGUUUUUUG [A24U A119G], the “polymerase ribozyme fitness (log ratio)” value was -6.17.
For GAUCAAUCUGCCCUCAGAGCUCGAGAACAUCUUCGGAUGCAGAGGAGGCAGGAUUAGGUGGCGCGAUAUCGCCAACGUCCUCAACCUCCAAUGCAUCCCACCACAUGAUGAUGCCUGAAGAGCCUUGGUUUUUUG [C3U C53A C56A G69U], the “polymerase ribozyme fitness (log ratio)” value was -0.204.
For GACCAAUCUGCCCUCAGAGCUCGAGAACAUCUUCGGAUGGAGAGGAGGCAGGCUUUGGUGGCGCGAUAGCGCCAACAUCCUCAACCUCCAAUGCAUCCCACCACAUGAUGAUGCCUGAAGAGCCUUGGUUUUUUG [C40G C56U G77A], the “polymerase ribozyme fitness (log ratio)” value was -0.862.
As for GACCAAUCUGCCCUCAGAGUUCGAGAACAUCUUCGGAUGCAGAGAAGGCAGGCUUCGGUGGCGCGAUAGCGCCAACGUCCUCAACCUCCAAUGCAUCCCACCACAUGAUGAUGCCUGAAGAGCCUUGGUUUUUUG [C20U G45A], the “polymerase ribozyme fitness (log ratio)” value was -2.57.
